From patent publication US20060019320A1, “Wnt mediated erbb signalling, compositions and uses related thereto” (priority 2002, published 2006)

B1: sFRP1: secreted Frizzled-related protein-1, binds Wnt preventing it from binding Fz; used as CM from sFRP1-producing HEK293 cells (protein, UniProt Q8N474 32-314, looked up)
Secreted frizzled-related …: SEYDYVSFQSDIGPYQSGRFYTKPPQCVDIPADLRLCHNVGYKKMVLPNLLEHETMAEVKQQASSWVPLLNKNCHAGTQVFLCSLFAPVCLDRPIYPCRWLCEAVRDSCEPVMQFFGFYWPEMLKCDKFPEGDVCIAMTPPNATEASKPQGTTVCPPCDNELKSEAIIEHLCASEFALRMKIKEVKKENGDKKIVPKKKKPLKLGPIKKKDLKKLVLYLKNGADCPCHQLDNLSHHFLIMGRKVKSQYLLTAIHKWDKKNKEFKNFMKKMKNHECPTFQSVFK
B2: EGF: an ErbB1 activator, used as control for ErbB1 activation (protein, UniProt P01133 23-1207, looked up)
Pro-epidermal growth factor: PQHWSCPEGTLAGNGNSTCVGPAPFLIFSHGNSIFRIDTEGTNYEQLVVDAGVSVIMDFHYNEKRIYWVDLERQLLQRVFLNGSRQERVCNIEKNVSGMAINWINEEVIWSNQQEGIITVTDMKGNNSHILLSALKYPANVAVDPVERFIFWSSEVAGSLYRADLDGVGVKALLETSEKITAVSLDVLDKRLFWIQYNREGSNSLICSCDYDGGSVHISKHPTQHNLFAMSLFGDRIFYSTWKMKTIWIANKHTGKDMVRINLHSSFVPLGELKVVHPLAQPKAEDDTWEPEQKLCKLRKGNCSSTVCGQDLQSHLCMCAEGYALSRDRKYCEDVNECAFWNHGCTLGCKNTPGSYYCTCPVGFVLLPDGKRCHQLVSCPRNVSECSHDCVLTSEGPLCFCPEGSVLERDGKTCSGCSSPDNGGCSQLCVPLSPVSWECDCFPGYDLQLDEKSCAASGPQPFLLFANSQDIRHMHFDGTDYGTLLSQQMGMVYALDHDPVENKIYFAHTALKWIERANMDGSQRERLIEEGVDVPEGLAVDWIGRRFYWTDRGKSLIGRSDLNGKRSKIITKENISQPRGIAVHPMAKRLFWTDTGINPRIESSSLQGLGRLVIASSDLIWPSGITIDFLTDKLYWCDAKQSVIEMANLDGSKRRRLTQNDVGHPFAVAVFEDYVWFSDWAMPSVMRVNKRTGKDRVRLQGSMLKPSSLVVVHPLAKPGADPCLYQNGGCEHICKKRLGTAWCSCREGFMKASDGKTCLALDGHQLLAGGEVDLKNQVTPLDILSKTRVSEDNITESQHMLVAEIMVSDQDDCAPVGCSMYARCISEGEDATCQCLKGFAGDGKLCSDIDECEMGVPVCPPASSKCINTEGGYVCRCSEGYQGDGIHCLDIDECQLGEHSCGENASCTNTEGGYTCMCAGRLSEPGLICPDSTPPPHLREDDHHYSVRNSDSECPLSHDGYCLHDGVCMYIEALDKYACNCVVGYIGERCQYRDLKWWELRHAGHGQQQKVIVVAVCVVVLVMLLLLSLWGAHYYRTQKLLSKNPKNPYEESSRDVRSRRPADTEDGMSSCPQPWFVVIKEHQDLKNGGQPVAGEDGQAADGSMQPTSWRQEPQLCGMGTEQGCWIPVSSDKGSCPQVMERSFHMPSYGTQTLEGGVEKPHSLLSANPLWQQRALDPPHQMELTQ
modifications: Pro-epidermal growth factor

How the values were obtained:
[1] = tested on: ERK1/2; experiment: phospho-ERK1/2 immunoblot (MAPK activity) in HC11 cells; format: cell-based, mouse
From the text: The MAPK and PI3K pathways are major signaling cascades downstream of activated ErbB receptors (Olayioye et al., 2000). Antisera specific for the active, phosphorylated forms of ERK1/2 and PKB, the major kinases on the respective pathways, were used to probe for their activity. 50 micrograms of WCL were immunoblotted essentially as described above with the exception that a phospho-ERK1/2 antibody (commercially available, New England Biolabs) or a phosphoPKB antibody was used. Membranes were stripped and reprobed for ERK1/2 (anti-p44/42 ERK, New England Biolabs).
Briefly, conditioned media (CM) from Wnt-HC11 cells prepared as described in Example 1 was tested for its effect on ErbB1 and MAPK activity, essentially as described above. Treatment of C-HC11 cells for 10 min with Wnt1- and Wnt5a-CM stimulated phospho-ERK1/2 levels 5-6-fold, whereas CM from C-HC11 cells had no effect.
To rule out the potential involvement of ErbB1 ligands in mediating the effects of Wnt-containing CM, we used secreted Frizzled-related protein-1 (sFRP-1), which binds Wnt preventing it from binding Fz (Uren et al., 2000). […]
The metalloproteinase inhibitors were next tested in the presence of Wnt-containing CM. […] Phospho-ERK1/2 levels were determined as above. […]

[2] = tested on: cyclin D1; experiment: Cyclin D1 immunoblot in HC11 cells; format: cell-based, mouse; conditions: control (C-HC11) cells treated 6 hr
Experimental: Briefly, WCL was prepared from HC11, Wnt1- and Wnt5a-expressing HC11 cells and 50 μg immunoblotted essentially as described above using commercially available antibodies against cyclin D1 (NovaCastra) or cyclin D2 (SantaCruz). Both Wnt1- and Wnt5a-HC11 cells express higher levels of cyclin D1, in comparison to HC11 cells. In addition, Wnt1-HC11 cells but not C- or Wnt5a-HC11 cells express cyclin D2.
C-HC11 cells were also treated 6 hrs with CM from Wnt-HC11 cells. WCL were prepared and 50 μg was immunoblotted for Cyclin D1 or Cyclin D2. Similar to the results with the Wnt-HC11 cell lines, both Wnts (CM) stimulated Cyclin D1 expression, while only Wnt1 enhanced cyclin D2 levels.
To assess the contribution of Wnt-transactivated ErbB1 on cyclin D1 and D2 expression, C- and Wnt-HC11 cells were treated 6 hr with PKI166 or CGS27023A or EGF. […] In contrast, the ErbB1 inhibitor had no effect on cyclin D2 levels. […] Thus, cyclin D1 and cyclin D2 are differentially controlled. Both Wnt1 and Wnt5a transactivate ErbB1, which results in increased expression of cyclin D1; in contrast cyclinD2 is only elevated in Wnt1 expressing cells and this is independent of ErbB1 activity.

[3] = target: T1, ErbB1 (Mus musculus, UniProt Q01279); experiment: ErbB1 immunoprecipitation and phosphotyrosine immunoblot in HC11 cells; format: cell-based; conditions: HC11 cells, 100 ng/ml EGF for 10 minutes
T1 construct: ErbB1 was immunoprecipitated from 500 micrograms WCL and immunoblotted with a phosphotyrosine specific antibody; endogenous in cells; host or cells: HC11 mammary cells (C-HC11, Wnt1-HC11, Wnt5a-HC11)
Experimental: ErbB1 is transactivated by many classes of membrane proteins (Carpenter, 1999; Gschwind et al., 2001). However, Wnt/VFz-mediated activation of ErbB1 has not been reported previously. Since ErbB1 tyrosine phosphorylation is an essential step in ErbB1 activation, we examined whether Wnt can activate ErbB1, by immunoprecipitating the receptor form Wnt/HC11 cells and performing a Westem analysis with phosphotyrosine specific antiserum. For these experiments HC11 cells were grown over night in medium without EGF. As a control for ErbB1 activation, C-HC 11 and Wnt-HC11 cells were treated for 10 minutes with 100 ng/ml EGF. An ErbB1 selective kinase inhibitor PKI166 (Traxler et al., 2001) was also used in some experiments. For this, the cells were pretreated 1 hr with 5 microM PKI 166, or left untreated, before preparing WCLs, essentially as described in Example 1.
ErbB1 was immunoprecipitated from 500 micrograms WCL and immunoblotted with a phosphotyrosine specific antibody (anti-phosphotyrosine AG10, Upstate Biotechnology) essentially as described previously (Lane et al., 2000). Membranes were stripped by placing them in 2% SDS, 62.5 mM Tris pH 6.8, 100 mM beta-mercaptoethanol at 60° C. for 30 min. Stripped membranes were reprobed for ErbB1 using a commercially available antibody (antibody 1005,Santa Cruz Biotechnology). […]

Molecule | Wnt1 and Wnt5a CM-induced increase of phospho-ERK1/2 levels ([1]; C-HC11, CM from sFRP1-producing 293 cells premixed 1:1 with Wnt-containing CM, 10 min) | cyclin D1 expression [2] | ErbB1 phosphorylation [3] | ERK1/2 phosphorylation ([1]; C-HC11 cells, EGF 10 minutes in the presence of sFRP1)
B1 | prevented |  |  | 
B2 |  | stimulate | strong increase | able to induce
